The target of assay [1] is T1, human ASCL1 (Achaete-scute homolog 1) (human, UniProt P50553 1-236).
T1 construct: also called hASCL1; immobilized human ASCL1
T1 sequence: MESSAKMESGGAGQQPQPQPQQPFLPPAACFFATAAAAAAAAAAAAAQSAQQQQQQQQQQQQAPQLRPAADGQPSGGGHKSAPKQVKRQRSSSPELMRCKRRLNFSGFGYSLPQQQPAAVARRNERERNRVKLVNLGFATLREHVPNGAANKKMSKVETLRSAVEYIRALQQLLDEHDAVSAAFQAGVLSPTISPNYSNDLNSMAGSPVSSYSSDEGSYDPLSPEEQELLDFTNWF
The assay can be described thus: screening of Example 2 (ELISA) or cells. For orientation: In an ELISA, binding on a coated surface is turned into a signal by an enzyme label.

Assay [2] deals with T1, human ASCL1 (Achaete-scute homolog 1). The assay is described as follows: ELISA with purified antibody: staining against hASCL1 divided by staining against an irrelevant protein (form of the coated hASCL1 not stated in paragraph 180; the screen it confirms used hASCL1-GST). How it is done: A second immunization campaign was conducted similar to the first with the following modifications: 1) 299×10⁶ cells) were fused with non-secreting SP2/0-Ag14 myeloma cells (ATCC #CRL-1581) at a ratio of 1:1 by electro cell fusion using a model BTX Hybrimmune System (BTX Harvard Apparatus). On day 6, after the fusion, the hybridoma cells were not frozen and were sorted on that day. After the 10 day culture, 6×384 clones were screened by ELISA selecting for antibodies positive to hASCL1-GST (glutathione S-transferase) and counter screened against an irrelevant protein tagged with GST. As part of this, ALK phosphatase-labeled goat anti-mouse IgG diluted 1:5000 in PBSA was used instead of HRP-labeled goat anti-mouse IgG diluted 1:10:000. ELISA samples were analyzed at OD405 instead of OD450.
To confirm the results of the ELISA soup screen a similar ELISA was run on purified antibodies from selected clones. The ELISA positive ratio, (defined as ELISA staining against hASCL1 divided by the ELISA staining against an irrelevant protein) was then determined and set forth in FIG. 3 in the column labeled “ELISA positive ratio”.

The target in assay [3] is T2, hASCL1 expressed in HEK-293T cells (pLMEGPA-hASCL1-NFlag) (human, UniProt P50553 1-236).
T2 construct: also called HEK293T cells transiently transduced with hASCL1; ASCL1 engineered cells
T2 sequence: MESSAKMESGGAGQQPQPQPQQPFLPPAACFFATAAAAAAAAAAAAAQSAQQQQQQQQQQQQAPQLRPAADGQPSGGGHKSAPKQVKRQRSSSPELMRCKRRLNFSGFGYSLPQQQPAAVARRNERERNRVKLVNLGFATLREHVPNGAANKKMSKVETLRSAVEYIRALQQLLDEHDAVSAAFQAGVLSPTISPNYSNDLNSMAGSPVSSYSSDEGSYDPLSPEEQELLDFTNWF
The assay is described as follows: intracellular flow cytometry (gMFI) on permeabilised HEK293T cells transduced with hASCL1, control cells transduced with GFP only; antibody 10 ug/ml. Here is the method: 1×10⁵ per well of HEK293T cells transiently transduced with hASCL1(as described in Example 1), and HEK293T cells transiently transduced with GFP only were washed with cold PBS and then incubated with a solution of PBS and a Dylight 450 Fixable viability dye for 30 minutes. After incubation, the cells were washed twice with PBS. To permeate the cell walls 100 ul of BD Cytofix/Cytoperm was added to the cells and left to incubate for 20 minutes on ice. Cells were then washed with BD Phosflow perm/wash solution. Purified antibody at a final concentration of 10 ug/ml was then added to the cells in 45 ul of BD Phosflow perm/wash solution, incubated on ice for 30 minutes, and then washed with BD Phosflow perm/wash 2 times. 50 ul of Alexa Fluor 647 conjugated Goat-anti-mouse IgG secondary antibody, was added at 1 ug/ml dissolved in BD Phosflow perm/wash and incubated on ice for 30 minutes, then washed with BD Phosflow perm/wash 3 times. The cells were then resuspended in FACS buffer to be read on BD FACS Canto according to the manufacturer's instructions.
The FlowJo software package (FlowJo LLC) was used to calculate gMFI (geometric Mean Fluorescence Intensity) for each of the anti-ASCL1 antibodies.
(In general: In flow cytometry, cells or beads pass a laser one at a time.)

B1: SC72.76 (antibody, V domains shown)
VH: QVQLKESGPGLVAPSQSLSITCTVSDFSLTNYAVHWVRQSPGKGLEWLGVIWSDGNTDYNAPFISRLSISKDNSKSQVFFKMNSLQADDTAIYYCASYGDSAYWGQGTLVTVSA
VL: DIVLTQSPASLTVSLGQRATISCRASQSVRTSNYSYMHWYQQKPGQPPKLLIKYASNLESGVPARFSGSGSGTDFTLNIHPVEEEDTATYYCQHHWEIPFTFGGGTKLEIK
notes: Murine monoclonal antibody from a hybridoma; light chain amplified with kappa primers
For B1, in assay [1], the binding result was “binds”.

B2: SC72.201 (antibody, V domains shown)
VH: EVNLEESGGGLVQPGGSMKLSCVASGFTFSNYWMNWVRQSPEKGLEWVAQIRSKSDNYATHYAESVKGRFTISRDDSKSSVYLQMNNLRSEDTGIYYCRTGPDVWGTGTTVTVSS
VL: DIQMTQSPASLSVSVGETVTITCRASENIYSSLAWYQQKQGNSPQLLVYAATKLADGVPSRFSGSGSGTQYSLKINSLQSEDFGSYYCQHFWGTTWTFGGGTKLEIK
notes: Murine monoclonal antibody from a hybridoma of the second immunization campaign; light chain amplified with kappa primers
Consider B2, for which the ELISA positive ratio in assay [2] worked out at 11.7. Moreover, the IC ratio in assay [3] came to 0.67.

B3: SC72.28 (antibody, V domains shown)
VH: DVQLQQSGAELVRPGALVKLSCKASGFNIKDYLIHWVKQRPEQGLEWIGCIDPENGNTIYDPRFQGKAKITSDTSSTTAYLRLTSLTSEDTAVYYCGRGGLDYWGQGTTLTVSS
VL: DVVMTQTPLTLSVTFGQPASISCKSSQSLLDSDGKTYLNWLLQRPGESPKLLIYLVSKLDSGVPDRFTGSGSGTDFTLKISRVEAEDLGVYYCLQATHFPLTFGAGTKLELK
notes: as for B1
Consider B3, for which, in assay [1], the binding result was “binds”.

B4: SC72.216 (antibody, V domains shown)
VH: QIQLVQSGPELRKPGETVKISCKASGYTFTNYPMHWVKQAPGKGFKWMGWINTYSGVPSYADDFKGRFAFSLETSASSAYLQINNLKNEDMATYFCARHNYNSYDVFAYWGQGTLVTVSA
VL: DIVVTQSPASLAVSLGQRATISCKASQSVDYDGDSYMNWYQQKPGQPPKLLIYGASNLESGIPARFSGSGSGTDFTLNIHPVEEEDAATYYCQQSNEDPYTFGGGTKLEIK
notes: as for B2
Take B4: the ELISA positive ratio in assay [2] was found to be 13. For the same molecule, the IC ratio in assay [3] is 1.86.

B5: SC72.165 (antibody, V domains shown)
VH: QVQLQQPGAELVRPGASVRLSCKASGYSFTSYWINWVKQRPGQGLEWIGNIYPGSSNTNYNEKFKRKATLTVDTSSSTAYMQLSSLTSDDSAVYYCARSESDYWGQGTTLTVSS
VL: DIVLTQSPASLAVSPGQRATISCKASQSVGYDGDTYLSWYQQKPGQPPKLLIYGVSILESGIPARFSGSGSGTDFTLNIHPVEEEDAATYYCQQSSEDPYTFGGGTKLEIK
notes: as for B1
Regarding B5, in assay [2], the ELISA positive ratio stood at 14.2. The IC ratio in assay [3] is 3.69.

B6: SC72.181 (antibody, V domains shown)
VH: QVQLQQPGAEVVKPGASVRLSCKASGYTFTSYWINWVKQRPGQGLEWIGNIYPGSSSTNYNEKFKSKATLTVDTSSSTAYMQLSSLTSDDSAVYYCSRSESDYWGQGTTLTVSS
VL: DIVLTQSPASLAVSLGQRATISCKASQSVDDDGGTYMSWYQQKPGQPPKLLIYGVFILESGIPARFSGSGSGTDFTLNIHPVEEEDAATYYCQQSNEDPYTFGGGTKLEIK
notes: as for B1
On to B6, for which the binding result in assay [1] is listed as “binds”.

B7: SC72.132 (antibody, V domains shown)
VH: EVKLVESEGGLVQPGSSMKLSCTASGFTFSDYYMAWVRQVPEKGLEWVATIDYDGSNTYYLDSLKSRFIISRDNAKNILYLQMSSLKSEDTATYYCARDGGYDEDYFDYWGQGTTLTVSS
VL: DIVMSQSPSSLAVSVGEKVTLSCKSSQTLLYSSNQQNYLAWYQQKPGQSPKLLIYWASTRESGVPDRFTGSGSGTDFTLTISSVKAEDLAVYYCHQYYTYPFTFGSGTKLEIK
notes: as for B1
For B7, in assay [1], the binding result is recorded as “binds”.

B8: SC72.93 (antibody, V domains shown)
VH: QVQLQQSGAELVRPGASVTLSCKASGYIFIDYEMHWVKQTPVHGLEWIGSIDPETGDTVYNQKFKGKATLTADKSSSTAYMELRSLTSEDSAVYYCSRGGLDYWGQGTTLTVSS
VL: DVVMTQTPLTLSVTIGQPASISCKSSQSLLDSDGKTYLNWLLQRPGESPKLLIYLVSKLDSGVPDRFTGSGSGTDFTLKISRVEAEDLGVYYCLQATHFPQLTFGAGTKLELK
notes: Murine monoclonal antibody from a hybridoma; same VL as SC72.2; light chain amplified with kappa primers
Regarding B8, the binding result in assay [1] is reported as “binds”.

B9: SC72.96 (antibody, V domains shown)
VH: EVQLQQSGPELVKPGASVKMSCKASGYTLTAYNIHWVKQSHGKSLEWIGFINPHSGGTTYNEKFKGKATLTVNKSSSTANMELRSLTSEDSAVYYCASIYYYGSSYFDHWGQGTTLTVSS
VL: DIQMTQSPASLSASVGETVTMTCRASENIHSNLVWYQQKQGKSPQLLVYAATNLADGVPSRFSGSGSGSQFSLKIDSLQPEDFGSYLCQHFYGTPRTFGGGTKLEIK
notes: as for B1
For the molecule B9, in assay [1], the binding result is reported as “binds”.

B10: SC72.52 (antibody, V domains shown)
VH: QVQLQQPGSVLVRPGASVKLSCKASGYTFTSYWMHWVKQRPGQGLEWIGEIYPNSGRTNYNEKFKGKATLTVDTSSSTAYVDLSSLTSEDSAVYYCHYYDDNYGYWGQGTTLTVSS
VL: DIVITQDELSNPVTSGESVSISCRSSKSLLYKDGKTYLNWFLQRPGQSPQLLIYLMSTRASGVSDRFSGSGSGTDFTLEISRVKAEDVGVYYCQQFVEYPLTFGAGTKLELK
notes: as for B1
For the molecule B10, in assay [1], the binding result was “binds”.

B11: SC72.63 (antibody, V domains shown)
VH: EVQLLQSGPELVKPGASVKMSCKASGYTLTDYNLHWVKQSHAKSLEWIGYINPYNGVTSYNQRFKGKATLTVNKSSSTAFMEFRSLTSEDSAVYYCVSLYYGDDPFACWGQGTLVTVST
VL: DIQMTQSPASLSASVGETVTMTCRASENIYSNLAWYQQKQGKSPQLLVYAATNLADDVPSRFSGSGSGTQFSLKINSLQPEDFGIYYCHHFYGSPLTFGAGTKLELK
notes: as for B1
Take B11: the binding result in assay [1] was “binds”.

B12: SC72.91 (antibody, V domains shown)
VH: QVQLQQSGPEVVKPGASVKLSCKASGYTFTTYDINWVKQRPGQGLEWIGWIYFRDGTNKYNEKFKGKATLTVDTSSSTAYMELHSLTSEDSAVYFCASVYDGYYVSGFDIMDYWGQGTSVTVSS
VL: DVVLTQTPLSLPVSLGDQASIYCRSSQSIVHSNGNTYFEWYLQKPGQSPKLLIYKVSNRLSGVPDRFSGSGSGTDFTLKISRVEAVDLGIYYCFQASHVPFTFGAGTKLELK
notes: as for B1
On to B12, for which the binding result in assay [1] is recorded as “binds”.

B13: SC72.94 (antibody, V domains shown)
VH: QVQLQQPGTELVKPGASVKLSCKASAYTFTSLWIHWVKQRPGQGLEWIGDINPSIGDTYYNERFKSKATLTVDKSSSTAYMQLSSLTSEDSAVYYCTTGDSWGQGTTLTVSS
VL: DIQMNQSPSSLSASLGDTITITCRASQGISIWLSWYQQKPGNIPKLLIYKASNLHTGVPPSFSGSGSGTDFTLTISSLQPEDIATYYCLQSQSYPWTFGGGTKLEIK
notes: as for B1
Turning to B13, the binding result in assay [1] was “binds”.

Source of the values: US20190194319A1 (AbbVie / Abbott, published 2019).
